The data set has as its target lysozyme (Lys) (UniProt P00698 19-147). The data set can be described thus: competition.

B1: Anti-Lys aptamer / Competitor 3 probe (mixed)
DNA 1: ATCAGGGCTAAAGAGTGCAGAGTTACTTAG
DNA 2: ATCAGGGCACTCTTTAGCCCTGAT
modifications: 5' and 3' pyrene via (CH2)6 on strand 2
Regarding B1, the binding result was “binds”.

(Values after PMC3005583.)
